The numbers were not newly measured in paper PMC7866529, which cites them from elsewhere.

The target in series [1] is S100B (Homo sapiens) (UniProt P04271).
For series [2] the target is unchanged. The source holds these as a separate data set.

Read-outs that look alike come from different tables or passages of the source. Where only a bound is given, the exact number is not on record here.

Consider TRTK12, for which the Kd in series [1] was 260 nM.

As for S100B (from UniProt P04271), the Kd in series [2] is < 0.5 nM.

One may read the Kd as a measure of binding affinity in units of concentration.
